The chains are these.
T1: recombinant hPDL-2 overexpressed on HEK 293 cells (human, UniProt Q9BQ51 20-273)
T1 chain: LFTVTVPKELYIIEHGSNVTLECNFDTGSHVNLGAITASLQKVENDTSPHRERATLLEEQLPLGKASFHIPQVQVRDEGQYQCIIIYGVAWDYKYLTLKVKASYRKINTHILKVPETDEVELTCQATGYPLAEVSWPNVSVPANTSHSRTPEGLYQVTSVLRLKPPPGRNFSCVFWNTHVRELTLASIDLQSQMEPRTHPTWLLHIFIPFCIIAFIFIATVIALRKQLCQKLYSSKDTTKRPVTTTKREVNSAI

B1: Compound 7 (peptide)
peptide: FRVTQKFRVTQLAPKAQIKE-NH2
modifications: not fully specified (residue 6)
B2: Compound 62 (peptide)
peptide: SNTSESFK(SNTSESF)FRVTQLAPEAQIKE-NH2
modifications: lactam 17-21; reading uncertain
B3: Compound 69 (peptide)
peptide: SNWSEDLK(SNWSEDL)FQIIQLHPKAKIEE-NH2
B4: Compound 82 (peptide)
peptide: SNWSEDLK(SNWSEDL)FQIIQLHPK(Palmitoyl)AKIEE-NH2
B5: Compound 63 (peptide)
peptide: SNTSESFK(SNTSESF)FKVTQEAPKAQIKE-NH2
modifications: lactam 10-14; reading uncertain
B6: Compound 10 (peptide)
peptide: SNQTDKVLNWYRMLAPKAQIKE-NH2
modifications: not fully specified (residue 6); printed as SNQTDK (SNQTDK) VLNWYRM LAPKAQIKE-NH2
B7: Compound 9 (peptide)
peptide: SNQTDKFRVTQLAPKAQIKE-NH2
modifications: not fully specified (residue 6); printed as SNQTDK (SNQTDK) FRVTQ LAPKAQIKE-NH2
B8: Compound 64 (peptide)
peptide: SNTSESFK(SNTSESF)FRVTELAPKAQIKE-NH2
modifications: lactam 13-17; reading uncertain
B9: Compound 91 (peptide)
peptide: SNWSEDLKFQIIQLHPK(MPA‑NH‑CH2‑CH2‑O‑CH2‑CH2‑O‑CO)AKIEE-NH2
modifications: not fully specified (residue 8)
B10: Compound 60 (peptide)
peptide: {Biotin-Ahx}-[dS][dN][dT][dS][dE][dS][dF][dK][dF][dR][dV][dT][dQ][dL][dA][dP][dK][dA][dQ][dI][dK][dE]-NH2
modifications: not fully specified (residue 8); printed as Biotin-Ahx-sntsesfk(sntsesf)frvtqlapkaqike-NH2
B11: Compound 61 (peptide)
peptide: {Biotin-Ahx}-EKIQAKPAYWNLVKDTQNS-NH2
modifications: not fully specified (residue 14)
B12: Compound 84 (peptide)
peptide: SNTSESFKFRVTQLAPKAQIKE-NH2
modifications: not fully specified (residue 8)
B13: Compound 8 (peptide)
peptide: SNTSESFKFRVTQLAPKAQIKE-NH2
modifications: not fully specified (residue 8)

Bridges are numbered along the chain shown (N, C = ends). Where no end group is shown, it is not given here. [ ]: non-standard residue; d: D form. The star is where a group is joined. Biotin = O=C1N[C@H]2[C@H](CS[C@H]2CCCCC(=O)*)N1; Palmitoyl = CCCCCCCCCCCCCCCC(=O)*; SNTSESF = not defined here; Ahx = NCCCCCC(=O)O

Chain of hPDL1 expressed on MDA-MB231 cells (Q9NZQ7 19-290): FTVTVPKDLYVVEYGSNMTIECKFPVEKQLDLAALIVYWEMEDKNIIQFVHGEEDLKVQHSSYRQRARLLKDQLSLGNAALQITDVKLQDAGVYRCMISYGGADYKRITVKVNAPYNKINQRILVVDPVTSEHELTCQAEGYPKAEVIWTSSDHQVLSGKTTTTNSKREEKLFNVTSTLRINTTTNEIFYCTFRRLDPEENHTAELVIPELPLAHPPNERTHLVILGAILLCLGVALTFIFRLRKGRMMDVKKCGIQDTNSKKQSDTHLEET

One test has as its target hPDL1 expressed on MDA-MB231 cells (human, UniProt Q9NZQ7 19-290). As to the kind of experiment: cell-based or functional assay.
On to B1, for which the “Percent rescue (100 nM, compared with 100 nM Comp 8) in mouse splenocyte proliferation CFSE based assay” value (“Percent rescue” below) was found to be 61.5%. On the same count and under the same terms, to B2 belongs 37%; to B3, 48%. On the same count and under the same terms, the same measure for B4: 58.3%; for B5: 68%. Same read-out and setting: the same measure for B6: 10.6%; for B7: 11.3%; for B8: 69.1%. Turning to B9, the “Percent rescue” value amounted to 69.4%. For B10, the “Percent rescue” value amounted to 14.9%. On the same count and under the same terms, the same measure for B11: 67%. On the same count and under the same terms, the same measure for B12: 80.5%.

The target of another test is T1, recombinant hPDL-2 overexpressed on HEK …. As to the kind of experiment: flow cytometry, inhibition of soluble PD1-Fc binding to hPDL2-expressing HEK293 cells.
Take B13: the half-maximal effective concentration (EC50) turned out to be 0.722 nM.

(Values after US20150087581A1 (AURIGENE DISCOVERY TECHNOLOGIES, published 2015).)
